From PMC11430254, “Insights into Transient Dimerisation of Carnitine/Acylcarnitine Carrier (SLC25A20) from Sarkosyl/PAGE, Cross-Linking Reagents, and Comparative Modelling Analysis” (Biomolecules, 2024)

B1: native carnitine/acylcarnitine carrier purified from isolated rat liver mitochondria (natural protein, UniProt P97521 1-301, looked up)
chain: MAEEPKPISPLKNLLAGGFGGVCLVFVGHPLDTVKVRLQTQPPSLPGQPPMYSGTIDCFRKTLFREGITGLYRGMAAPIIGVTPMFAVCFFGFGLGKRLQQKSPEDELTYPQLFTAGMLSGVFTTGIMTPGERIKCLLQIQASSGKNKYSGTLDCAKKLYQEFGIRGFYKGTALTLMRDVPASGMYFMTYEWLKNLFTPQGKSVHDLSVPRVLVAGGFRGIFNWVVAIPPDVLKSRFQTAPPGKYPNGFRDVLRELIREEGVTSLYKGFNAVMIRAFPANAACFLGFEIPMKILNWIAPNL
notes: mitochondrial carnitine/acylcarnitine carrier (CAC, SLC25A20), rat, native protein from liver mitochondria; single band of apparent molecular weight 32,500 Da on SDS gel; Integral membrane protein; also called CAC; SLC25A20; source: purified from rat liver mitoplasts (3% Triton X-100 extract, hydroxyapatite, celite with cardiolipin); used in Triton X-100 or reconstituted in liposomes
B2: recombinant carnitine/acylcarnitine carrier wild type (natural protein, UniProt P97521 1-301, looked up)
chain: B1 chain
notes: also called CAC WT; WT; source: overexpressed from cDNA cloned in pMW7, purified, reconstituted in liposomes

Assays:
[1] = target: the molecule itself; assay: cross-linking; purified CAC reconstituted in liposomes (0.5 µg protein), 0.5 mM Sulfo-MBS (spacer arm 9.9 Å), 30 min at room temperature, quenched with 10 mM DTE and 20 mM Tris-HCl pH 8.0; SDS-PAGE and immunoblot
[2] = target: the molecule itself; assay: native gel or EMSA; Sarkosyl/PAGE: 14% polyacrylamide, 0.05% w/v Sarkosyl in gel, samples and running buffer, 100 Volt, 4 °C; purified CAC in Triton X-100 or extracted from proteoliposomes with 0.05% Sarkosyl; silver nitrate staining; 59 kDa band excised and run on SDS-PAGE with immunoblot
[3] = target: the molecule itself; assay: cross-linking; recombinant CAC WT alone (100) or mixed with C-lessV (75/25, 50/50) reconstituted in liposomes, incubated with Sulfo-SMPB; SDS-PAGE and immunoblot

Protein	stoichiometry N [1]	stoichiometry N [2]	stoichiometry N [3]
B1	2	~2	
B2			2
